Target: LgBiT-HaloTag
Test: luminescence saturation binding: VS-HiBiT titrated 200-0 nM against 0.2 nM fusion

Chain of LgBiT-HaloTag (chain, as listed by the source limits assumed): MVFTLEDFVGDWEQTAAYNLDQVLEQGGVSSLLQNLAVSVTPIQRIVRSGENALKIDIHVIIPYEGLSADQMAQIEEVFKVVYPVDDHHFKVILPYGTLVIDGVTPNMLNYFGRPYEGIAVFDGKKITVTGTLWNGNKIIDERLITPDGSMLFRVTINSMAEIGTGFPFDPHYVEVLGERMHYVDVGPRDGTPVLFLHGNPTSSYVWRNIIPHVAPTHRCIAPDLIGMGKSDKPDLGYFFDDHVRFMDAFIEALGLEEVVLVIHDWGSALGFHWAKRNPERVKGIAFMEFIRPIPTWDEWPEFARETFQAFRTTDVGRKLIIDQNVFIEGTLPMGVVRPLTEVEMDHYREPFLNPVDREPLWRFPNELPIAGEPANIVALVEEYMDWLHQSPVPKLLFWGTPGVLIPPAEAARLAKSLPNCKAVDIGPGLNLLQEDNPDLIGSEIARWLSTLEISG

- fold complementation affinity (against the VS-HiBiT/HaloTag-LgBiT configuration): 3 fold
Binder: VSGWRLFKKIS (modifications not checked) [VS-HiBiT peptide]
